From paper PMC4529235

Key:
[1] = molecular target: trimeric ASIC1a concatemeric fusion protein 3_(ASIC)FP (H8-(hA1a-N1Q7)2-hA1a) (human) (UniProt P78348); experiment: cross-linking; oxidation with 0.3 mM NaTT (20 min, 4°C) of Ni-NTA affinity-purified fractions from Xenopus oocytes and CHO cells, on the beads; non-reducing SDS-PAGE, anti-ASIC1a western blot
[2] = molecular target: trimeric ASIC1a concatemeric fusion protein 3_(ASIC)FP (H8-(hA1a-N1Q7)2-hA1a) (human) (UniProt P78348); experiment: cross-linking; BMOE (0.5 or 2 mM) at the cell surface of Xenopus oocytes and CHO cells before lysis, cell-surface biotinylated fractions, SDS-PAGE under reducing conditions, anti-ASIC1a western blot; band intensities pooled over oocytes and CHO cells

Question: Which results are given for “single ASIC1a subunit available in cells expressing 3_(ASIC)FP”?
Answer: percent of ASIC1a that migrates as the tetramer [1]: > 60%; percent of ASIC1a that migrates as the tetramer [2]: > 60%
